First the molecules themselves.
B1: FtsZ from E. coli (wild type, unlabeled) (natural protein, UniProt P0A9A6 1-383, looked up)
chain: MFEPMELTNDAVIKVIGVGGGGGNAVEHMVRERIEGVEFFAVNTDAQALRKTAVGQTIQIGSGITKGLGAGANPEVGRNAADEDRDALRAALEGADMVFIAAGMGGGTGTGAAPVVAEVAKDLGILTVAVVTKPFNFEGKKRMAFAEQGITELSKHVDSLITIPNDKLLKVLGRGISLLDAFGAANDVLKGAVQGIAELITRPGLMNVDFADVRTVMSEMGYAMMGSGVASGEDRAEEAAEMAISSPLLEDIDLSGARGVLVNITAGFDLRLDEFETVGNTIRAFASDNATVVIGTSLDPDMNDELRVTVVATGIGMDKRPEITLVTNKQVQQPVMDRYQQHGMAPLTQEQKPVAKVVNDNAPQTAKEPDYLDIPAFLRKQAD
notes: Cell division protein FtsZ, E. coli; assembles into polymers with GTP, GDP or GMPCPP; also called FtsZ-GTP; FtsZ-GDP; source: over-expressed from plasmid pET11b, purified (30% saturated ammonium sulfate, source Q 10/10 column)
B2: FtsZ T151C/Y222W labeled with ATTO-655-maleimide (natural protein, E. coli, UniProt P0A9A6 1-383, looked up)
chain: B1 chain with T151C, Y222W
modifications: labeled with ATTO-655-maleimide
notes: Cell division protein FtsZ, E. coli, double mutant T151C/Y222W; Used diluted with a 9-fold excess of unlabeled wild-type FtsZ; also called FtsZY222W/T151C; labeled FtsZ; source: over-expressed from plasmid pET11b, purified (ammonium sulfate, source Q 10/10 column)
B3: PaFtsZ (FtsZ from Pseudomonas aeruginosa), full length (natural protein, UniProt P47204 1-394, looked up)
chain: MFELVDNIAQTAVIKVIGVGGGGGNAVNHMAKNNVEGVEFICANTDAQALKNIAARTVLQLGPGVTKGLGAGANPEVGRQAALEDRERISEVLEGADMVFITTGMGGGTGTGAAPIIAEVAKEMGILTVAVVTRPFPFEGRKRMQIADEGIRALAESVDSLITIPNEKLLTILGKDASLLAAFAKADDVLAGAVRGISDIIKRPGMINVDFADVKTVMSEMGMAMMGTGCASGPNRAREATEAAIRNPLLEDVNLQGARGILVNITAGPDLSLGEYSDVGNIIEQFASEHATVKVGTVIDADMRDELHVTVVATGLGARLEKPVKVVDNTVQGSAAQAAAPAQREQQSVNYRDLDRPTVMRNQSHGSAATAAKLNPQDDLDYLDIPAFLRRQAD
notes: Cell division protein FtsZ, Pseudomonas aeruginosa; also called His6-PaFtsZ; source: expressed from pET15b (NdeI/BamHI), purified (Talon column, thrombin, source Q 10/10 column)

Data set [1] deals with the molecule itself. The data set is described as follows: negative-stain electron microscopy; FtsZ alone assembled with GTP; 5 uM FtsZ in HMK buffer pH 7.5 (50 mM HEPES, 100 mM KAc, 5 mM MgAc); also 5 and 10 uM FtsZ in MEK buffer pH 6.5 with 1 mM EDTA plus GTP, and 5 uM FtsZ in HMK with 0.5 mM GMPCPP; 2% uranyl acetate.
Data set [2] addresses B1. The data set is described as follows: Trp quenching of ATTO fluorescence; 1 part ATTO-655-labeled FtsZ T151C/Y222W mixed with 9 parts unlabeled wild-type FtsZ; MMK buffer pH 6.5; 25 °C; excitation 650 nm, emission 680 nm; assembly kinetics. To be noted: both partners purified.
Data set [3] concerns the molecule itself. The data set is described as follows: negative-stain electron microscopy; FtsZ alone assembled with 0.5 mM GDP, HMK buffer pH 7.5; 5 uM (and 15 uM for E. coli FtsZ); 2% uranyl acetate.

Changes are numbered by the printed parent chain. Names and notes keep the numbering of the source.

On to B1, for which the binding result in data set [1] was “binds”.

As for B2, in data set [2], the binding result is “binds”.

As to B3, the binding result in data set [3] was “binds”.

(Values after paper PMC5473857, “ZipA and FtsA* stabilize FtsZ-GDP miniring structures” (Scientific Reports, 2017).)
